# Measured values: patent US20100047253A1 (Amgen, published 2010)
# Positions count from the first letter of the chain named. “And” between values parts separate entries of the source, which are not always exact repeats. Equal entries are not always repeated.
# B1: mAb 731 (antibody, V domains shown)
# VH: EVQLLESGGGLVQPGGSLRLSCAASGFTFSSYAMSWVRQAPGKGLEWVSAFSGSGGSTYYADSVKGRFTISRDNSKNTLYLQMNSLRAEDTAVYYCVQDGLGPYFYNYGMDVWGQGTTVTVSS
# VL: SYELTQPPSVSVSPGQTASITCSGDKLGDKYACWFQQKPGQSPVLVIYHDSKRPSGIPERFSGSNSGDTATLTISGTQAMDEADYYCQAWDSSTYVFGTGTKVTVLG
# notes: also called sc731
# B2: mAb 713 (antibody, V domains shown)
# VH: B1 VH
# VL: B1 VL with A32T
# B3: mAb 785 (antibody, V domains shown)
# VH: not shown
# VL: SYVLTQPPSVSVAPGQTARITCGGNNIGNKIVHWYQQKPGQAPVLVVYDDSDRPSGIPERFSGSNSGNTATLTISRVEAGDEADYYCQVWDSSSDHVVFGGGTKLTVLG
# B4: mAb 602 (antibody, V domains shown)
# VH: EVQLVESGGGLVKPGGSLRLSCAASGFTFSNAWMSWVRQAPGKGLEWVGRIRSKIDGGTINYAAPVKGRFTISRDDSKNTLYLQMNSLKTEDTAVYYCATDQVGAYYGDYYGMDVWGQGTTVTVSS
# VL: SYELTQPPSVSVSPGQTARITCSGDALPEKYAYWYQQKSGQAPVLVIYEDTKRPSGIPERFSGSSSGTMATLTISGAQVEDEADYYCYSTDSSGNHGVFGGGTKLTVLG
# B5: mAb 643 (antibody, V domains shown)
# VH: B4 VH with K54E, I60T, K89R
# VL: B4 VL with T51S, Y88H
# B6: mAb 693 (antibody, V domains shown)
# VH: QVQLQESGPGLVKPSETLSLTCSVSGGSISSYYWSWIRQPAGKGLEWIGRIYMTGRTNYNSSLKSRVTMSIDTSKNQLSLKLSFMTAADTAVYYCARESGSSYSYDYWGQGTLVTVSS
# VL: SYVLTQPPSVSVAPGQTARITCGGNNIGSKGVHWYQQKPGQAPVLVVYDDSDRPSGIPERFSGSNSGNTATLTISRVEAGDEADYYCQVWVSSSDHHVVFGGGTKLTVV
# notes: also called sc693
# B7: mAb 157 (antibody, V domains shown)
# VH: EVQLVESGGGLVKPGGSLRLSCAASGFTFSSYSMNWVRQAPGKGLEWVSYISTSYNYIYYADSVKGRFTISRDNAKNSLYLQMNSLRAEDTAVYYCARDQVGATLDAFDIWGQGTMVTVSS
# VL: DIQMTQSPSSLSASVGDRVTITCRASQGIGDDLGWYQQKPGKAPKRLIYAASSLQSGVPSRFSGSGSGTEFTLTISSLQPEDFATYYCLQHNSYPFTFGPGTRVDIK
# B8: mAb 243 (antibody, V domains shown)
# VH: B7 VH with Y55N, N56S
# VL: B7 VL with I21F, G28D, G30T, R103K, K107R
# B9: mAb 176 (antibody, V domains shown)
# VH: B7 VH with Y55N, N56S
# VL: B7 VL with I21F, G28D, G30T, S60P, R103K, K107R
# B10: mAb 264 (antibody, V domains shown)
# VH: B7 VH with Y55N, N56S
# VL: B7 VL with I21F, G28D, G30T, R103K, K107R
# B11: mAb 183 (antibody, V domains shown)
# VH: B7 VH with T53S, A61G
# VL: B7 VL with R103K
# B12: mAb 356 (antibody, V domains shown)
# VH: EVQLVESGGGLVKPGGSLRLSCAASGFTFSDYNMHWVRQAPGKGLEWVSSISYSSTYIYYADSVRGRFTISRDNAKNSLYLQMNSLRAEDTAVFYCAREDYYYYGLDVWGQGTTVTVSS
# VL: B7 VL with G28D, G30R, D31N, A50D, T85I, F96W, P100Q, R103K, D105E
# B13: mAb 11.18 (antibody, V domains shown)
# VH: QVQLVESGGGVVQPGRSLRLSCVASGFTFSSYDMHWVRQAPGKGLEWVAVIWYDGSNKYYADSVQGRFTISRDNSKNTLYLQMNSLRAEDTAVYYCTSEDSSGWYDGWFDPWGQGTLVTVSS
# VL: DIQMTQSPSSLSASVGDRVTITCRASQGISNYLAWYQQKPGKVPKVLIYAASTLQSGVPSRFSGSGSGTDFTLTISSLQPEDVATYYCQKYNSAPFTFGPGTKVDIK
# Molecular target: marmoset IL-13 (marmoset, UniProt A0A8I3WT33 35-145)
# Assay: KinExA, n-curve analysis
# Sequence of marmoset IL-13 (A0A8I3WT33 entry or part of it): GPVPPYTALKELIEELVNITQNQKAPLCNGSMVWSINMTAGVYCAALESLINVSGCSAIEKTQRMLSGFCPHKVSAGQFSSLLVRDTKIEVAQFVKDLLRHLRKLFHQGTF
row,Binder,Kd [pM]
1,B1,< 7

# Molecular target: T1, Human IL-13-Mouse IL-13 Helix B (human IL-13 with mouse Helix B, UniProt P35225 35-146, limits assumed)
# T1 construct: Expressed and secreted chimeric protein; also called Mo HelixB
# T1 chain: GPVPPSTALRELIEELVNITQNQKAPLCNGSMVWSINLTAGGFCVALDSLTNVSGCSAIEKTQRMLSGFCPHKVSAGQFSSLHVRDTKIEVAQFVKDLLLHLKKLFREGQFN
# Assay: ELISA on secreted IL-13 chimeric proteins; '*' denotes that the binding was weak in the sandwich ELISA
row,Binder,binding result
1,B2,binds
2,B1,binds

# Molecular target: T1, Human IL-13-Mouse IL-13 Helix B
# Assay: ELISA on secreted IL-13 chimeric proteins
row,Binder,binding result
1,B3,binds
2,B4,binds
3,B5,binds
4,B6,binds

# Molecular target: T2, Human IL-13-Mouse IL-13 Helix D (human IL-13 with mouse Helix D)
# T2 construct: Expressed and secreted chimeric protein; also called Mo HelixD
# T2 chain: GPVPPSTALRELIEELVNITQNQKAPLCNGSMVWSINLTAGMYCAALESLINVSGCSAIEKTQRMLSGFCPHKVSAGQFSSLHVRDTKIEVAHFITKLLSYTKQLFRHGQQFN
# Assay: ELISA on secreted IL-13 chimeric proteins
row,Binder,binding result
1,B3,no binding
2,B6,no binding

# Molecular target: T3, Human IL-13-Mouse IL-13 Helix C (human IL-13 with mouse Helix C, UniProt P35225 35-146, limits assumed)
# T3 construct: Expressed and secreted chimeric protein; also called Mo HelixC
# T3 chain: T1 chain with G42M, F43Y, V45A, D48E, T51I, E60Y, K61R, M65I, S67H, F69L
# Assay: ELISA on secreted IL-13 chimeric proteins
row,Binder,binding result
1,B3,binds
2,B2,no binding
3,B1,no binding
4,B4,binds
5,B5,binds
6,B6,binds

# Molecular target: T4, native human IL-13 (human, UniProt P35225 35-146, limits assumed)
# T4 construct: also called hIL-13
# Assay: KinExA; KD from the equilibrium experiments, printed in the kinetic table (injection method row)
row,Binder,Kd [pM]
1,B1,8.9

# Molecular target: T5, 693 phage
# T5 peptide: YKIGEPHKDTYM
# Assay: Panning of mAb 693 against a 12-mer random peptide library expressed on phage, two rounds
row,Binder,binding result
1,B6,binds

# Molecular target: T6, native macaque IL-13 (macaque monkey)
# T6 construct: also called macaque monkey IL-13
# Assay: KinExA, equilibrium in solution
# T6 sequence (Q864V6 19-132): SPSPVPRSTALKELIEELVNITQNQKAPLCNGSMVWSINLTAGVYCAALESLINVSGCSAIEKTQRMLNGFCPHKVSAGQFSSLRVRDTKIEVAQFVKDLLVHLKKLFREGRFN
row,Binder,Kd [pM]
1,B1,1600

# Molecular target: T7, human IL-13 (source not stated for the assay) (human, UniProt P35225 35-146, limits assumed)
# Assay: cell-based or functional assay
Binder,"IC50, IL-13 induced eotaxin release, Average [pM]","IC50, IL-13 induced eotaxin release, n = 1 [pM]","IC50, IL-13 induced eotaxin release, n = 2 [pM]","IC50, IL-13 induced eotaxin release, n = 3 [pM]"
B3,176,223,144,160
B2,21,21,21,19
B1,16,11,19,17
B4,66,80,53,–
B5,35,44,28,33
B7,258,260,207,306
B8,253,253,–,–
B9,233,233,–,–
B10,297,293,313,284
B11,1440,1040,1840,–
B12,1000,1090,913,–
B6,54,38,69,53
B13,245,213,304,217

# Molecular target: T8, mouse IL-13 (mouse, UniProt P20109 22-131, limits assumed)
# T8 construct: also called murine IL-13
# T8 sequence (looked up): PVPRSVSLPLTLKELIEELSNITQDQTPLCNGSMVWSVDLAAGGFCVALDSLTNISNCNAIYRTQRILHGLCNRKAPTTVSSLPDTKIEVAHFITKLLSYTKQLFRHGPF
# Assay: epitope mapping with mouse IL-13 chimeric molecules (ELISA)
row,Binder,binding result
1,B3,no binding
2,B2,no binding
3,B1,no binding
4,B4,no binding
5,B5,no binding
6,B6,no binding

# Molecular target: T4, native human IL-13
# Assay: KinExA kinetic, injection method; koff calculated from kon and KD
row,Binder,koff [s⁻¹]
1,B1,4.2e-05

# Molecular target: T4, native human IL-13
# Assay: KinExA kinetic, injection method
row,Binder,kon [M⁻¹ s⁻¹]
1,B1,4.7e+06

# Molecular target: T9, Human IL-13-rabbit Fc fusion protein (human IL-13 fused to rabbit Fc)
# T9 construct: also called IL-13-RbFc; IL-13 Rb Fc
# Assay: ELISA on plates coated with IL-13RbFc, detection with rabbit anti Hu IgG Fc HRP (paragraph 267 to paragraph 269)
# T9 sequence (chain, as listed by the source limits assumed): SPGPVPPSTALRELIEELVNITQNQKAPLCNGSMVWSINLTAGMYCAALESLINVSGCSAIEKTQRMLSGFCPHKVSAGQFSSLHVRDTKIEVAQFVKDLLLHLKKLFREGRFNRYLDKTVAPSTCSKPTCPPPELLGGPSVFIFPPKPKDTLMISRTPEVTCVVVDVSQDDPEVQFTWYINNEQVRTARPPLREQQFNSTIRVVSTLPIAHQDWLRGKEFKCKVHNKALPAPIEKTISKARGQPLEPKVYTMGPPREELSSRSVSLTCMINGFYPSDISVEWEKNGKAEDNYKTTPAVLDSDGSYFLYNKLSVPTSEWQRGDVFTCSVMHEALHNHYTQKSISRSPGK
row,Binder,binding result
1,B1,binds

# Molecular target: T4, native human IL-13
# Assay: KinExA, equilibrium in solution
row,Binder,Kd [pM]
1,B2,3.6
2,B1,8.9
3,B5,13

# Molecular target: T7, human IL-13 (source not stated for the …)
# Assay: cell-based or functional assay
# Remark: another data set of the same source
Binder,"IC50, eotaxin production by HDFa cells, 300 pM IL-13 [pM]","IC50, eotaxin production by HDFa cells, 600 pM IL-13 [pM]"
B1,28,56

# Molecular target: T10, Recombinant Human IL-13 (R & D 213-IL-005) (human, UniProt P35225 35-146)
# T10 construct: also called IL-13 antigen (R&D Systems)
# Assay: SPR (Biacore 2000), mAb captured on goat anti-human surface, IL-13 (R&D) injected, 1:1 model
Binder,Kd,koff,kon
B2,12 pM,3.4e-05 s⁻¹,2.9e+06 M⁻¹ s⁻¹
B1,9 pM,3.5e-05 s⁻¹,3.9e+06 M⁻¹ s⁻¹
B4,172 pM,0.00051 s⁻¹,3e+06 M⁻¹ s⁻¹
B5,66 pM,0.00029 s⁻¹,4.4e+06 M⁻¹ s⁻¹
B6,189 pM and 109 pM,0.00038 s⁻¹ and 0.00027 s⁻¹,2e+06 M⁻¹ s⁻¹ and 2.5e+06 M⁻¹ s⁻¹

# Molecular target: T7, human IL-13 (source not stated for the …)
# Assay: cell-based or functional assay
# Remark: another data set of the same source
Binder,"EC50, HDLM-2 proliferation assay (3H-thymidine) [pM]","EC50, L-1236 proliferation assay (3H-thymidine) [pM]","IC50, IL-13-induced CD23 expression on whole blood B cells (FACS) [pM]"
B1,180,5.2,870
